Test results as given in the Human Domainome abundance scans (Beltran et al. 2025).
± gives the uncertainty stated by the source.

B1: Far upstream element-binding protein 3, residues 75 to 150; numbered along this chain, Q96I24 (parent)
chain: RTVITEEFKVPDKMVGFIIGRGGEQISRIQAESGCKIQIASESSGIPERPCVLTGTPESIEQAKRLLGQIVDRCRN

Variants of: B1
Experiment: abundance fitness (aPCA) (normalised: wild type 0, dead -1); higher = more abundant; growth selection in yeast, the domain comes from the species named
Details: Homo sapiens
E32N gave an abundance fitness of -0.173 ± 0.079.
Work on E32I yielded an abundance fitness of -0.04 ± 0.061.
Variant E32P has an abundance fitness of -0.95 ± 0.069.
For E32R, the abundance fitness was -0.039 ± 0.026.
For E32W, the abundance fitness was -0.131 ± 0.031.
Work on E24W yielded an abundance fitness of 0.222 ± 0.032.
E24F gave an abundance fitness of -0.043 ± 0.057.
In the case of E24Y, the abundance fitness is reported as 0.062 ± 0.053.
With E24N the abundance fitness was 0.052 ± 0.05.
In the case of E24H, the abundance fitness is reported as 0.059 ± 0.068.
With E24S the abundance fitness was 0.016 ± 0.033.
In the case of E24R, the abundance fitness is reported as 0.113 ± 0.027.
E24A showed an abundance fitness of -0.008 ± 0.033.
Variant D72H has an abundance fitness of -0.023 ± 0.058.
D72K gave an abundance fitness of -0.048 ± 0.049.
Variant D72P has an abundance fitness of -0.142 ± 0.039.
K36P gave an abundance fitness of -0.811 ± 0.063.
With K36C the abundance fitness was -0.116 ± 0.049.
In the case of K36W, the abundance fitness is reported as -0.18 ± 0.037.
For Q38K, the abundance fitness was -0.022 ± 0.05.
Variant Q38E has an abundance fitness of -0.013 ± 0.035.
Q38W gave an abundance fitness of -0.107 ± 0.032.
Q38S showed an abundance fitness of -0.06 ± 0.035.
Q38M gave an abundance fitness of -0.101 ± 0.043.
For Q38R, the abundance fitness was -0.055 ± 0.027.
For Q38C, the abundance fitness was -0.053 ± 0.048.
With G34Y the abundance fitness was -0.361 ± 0.074.
For G34R, the abundance fitness was -0.079 ± 0.03.
For G34D, the abundance fitness was -0.073 ± 0.047.
In the case of T5D, the abundance fitness is reported as -0.204 ± 0.068.
T5P showed an abundance fitness of -0.394 ± 0.059.
With C35S the abundance fitness was -0.276 ± 0.039.
With C35V the abundance fitness was -0.157 ± 0.032.
Work on C35F yielded an abundance fitness of -1.06 ± 0.12.
Work on C35G yielded an abundance fitness of -0.663 ± 0.031.
With C35K the abundance fitness was -0.608 ± 0.054.
Variant P57K has an abundance fitness of -0.009 ± 0.056.
With P57L the abundance fitness was -0.112 ± 0.04.
Work on P57Q yielded an abundance fitness of -0.023 ± 0.049.
For I4A, the abundance fitness was -0.122 ± 0.032.
I4S showed an abundance fitness of -0.141 ± 0.035.
In the case of I4R, the abundance fitness is reported as -0.065 ± 0.026.
I4C gave an abundance fitness of -0.092 ± 0.045.
In the case of A63M, the abundance fitness is reported as -0.292 ± 0.041.
Work on A63L yielded an abundance fitness of -0.746 ± 0.037.
Work on A63T yielded an abundance fitness of -0.412 ± 0.041.
Variant G20H has an abundance fitness of -0.243 ± 0.067.
Variant G20W has an abundance fitness of -0.483 ± 0.037.
G20L gave an abundance fitness of -0.474 ± 0.035.
G20E gave an abundance fitness of -0.127 ± 0.034.
Work on G20Y yielded an abundance fitness of -0.524 ± 0.091.
Variant G20T has an abundance fitness of -0.228 ± 0.044.
Variant G20V has an abundance fitness of -0.707 ± 0.034.
In the case of E61D, the abundance fitness is reported as 0.027 ± 0.044.
E61W gave an abundance fitness of -0.111 ± 0.036.
Variant T54Y has an abundance fitness of -0.102 ± 0.071.
With T54S the abundance fitness was -0.078 ± 0.045.
Work on F17P yielded an abundance fitness of -0.095 ± 0.047.
Work on F17I yielded an abundance fitness of -0.05 ± 0.07.
In the case of F17S, the abundance fitness is reported as -0.034 ± 0.038.
Variant F17C has an abundance fitness of -0.074 ± 0.046.
For F17V, the abundance fitness was -0.028 ± 0.031.
In the case of F17N, the abundance fitness is reported as -0.141 ± 0.058.
Work on F17G yielded an abundance fitness of -0.06 ± 0.029.
E6C showed an abundance fitness of -0.022 ± 0.041.
In the case of E6G, the abundance fitness is reported as -0.19 ± 0.026.
Variant E6P has an abundance fitness of -0.807 ± 0.054.
Work on E6S yielded an abundance fitness of -0.042 ± 0.032.
With G16K the abundance fitness was 0.018 ± 0.042.
Variant G16V has an abundance fitness of -0.172 ± 0.031.
In the case of G16S, the abundance fitness is reported as -0.032 ± 0.035.
With G16M the abundance fitness was -0.12 ± 0.043.
G16Q gave an abundance fitness of -0.027 ± 0.039.
For G16T, the abundance fitness was -0.063 ± 0.037.
In the case of C74M, the abundance fitness is reported as -0.021 ± 0.042.
C74W showed an abundance fitness of -0.022 ± 0.031.
C74D showed an abundance fitness of -0.068 ± 0.058.
C74K gave an abundance fitness of -0.027 ± 0.054.
For C74A, the abundance fitness was 0.02 ± 0.029.
For C74I, the abundance fitness was -0.057 ± 0.071.
With I18V the abundance fitness was -0.085 ± 0.03.
Variant I18R has an abundance fitness of -0.425 ± 0.028.
I18M showed an abundance fitness of -0.079 ± 0.039.
For I18W, the abundance fitness was -0.243 ± 0.037.
Variant V15D has an abundance fitness of -0.324 ± 0.047.
Variant V15I has an abundance fitness of -0.111 ± 0.051.
Work on V15E yielded an abundance fitness of -0.183 ± 0.033.
Work on V15N yielded an abundance fitness of -0.349 ± 0.06.
V15S showed an abundance fitness of -0.102 ± 0.033.
V15A showed an abundance fitness of -0.059 ± 0.03.
With I39Q the abundance fitness was -0.399 ± 0.041.
Variant I39H has an abundance fitness of -0.44 ± 0.066.
In the case of I39Y, the abundance fitness is reported as -0.327 ± 0.06.
Work on I39E yielded an abundance fitness of -0.502 ± 0.037.
For I39C, the abundance fitness was -0.152 ± 0.044.
In the case of I39P, the abundance fitness is reported as -0.394 ± 0.044.
For S43V, the abundance fitness was -0.057 ± 0.032.
In the case of S43D, the abundance fitness is reported as -0.036 ± 0.056.
S43N gave an abundance fitness of -0.125 ± 0.098.
In the case of S43P, the abundance fitness is reported as 0.018 ± 0.051.
Work on S43A yielded an abundance fitness of -0.064 ± 0.039.
With G68Y the abundance fitness was -0.045 ± 0.056.
G68L showed an abundance fitness of -0.046 ± 0.032.
Work on G68R yielded an abundance fitness of -0.036 ± 0.029.
Work on G68T yielded an abundance fitness of -0.06 ± 0.039.
For G68E, the abundance fitness was -0.026 ± 0.038.
G68D gave an abundance fitness of -0.001 ± 0.048.
L67F showed an abundance fitness of -0.367 ± 0.064.
Variant L67A has an abundance fitness of -0.845 ± 0.05.
For L67Q, the abundance fitness was -0.839 ± 0.085.
In the case of L67M, the abundance fitness is reported as -0.099 ± 0.046.
L67G gave an abundance fitness of -0.864 ± 0.042.
V10N showed an abundance fitness of -0.612 ± 0.081.
V10M showed an abundance fitness of -0.122 ± 0.039.
In the case of V10H, the abundance fitness is reported as -0.4 ± 0.053.
Work on I29G yielded an abundance fitness of -0.677 ± 0.028.
Variant I29C has an abundance fitness of -0.191 ± 0.038.
With I29R the abundance fitness was -0.856 ± 0.033.
In the case of I29P, the abundance fitness is reported as -0.625 ± 0.051.
For I29V, the abundance fitness was -0.049 ± 0.027.
In the case of I29H, the abundance fitness is reported as -0.622 ± 0.083.
Variant I29M has an abundance fitness of -0.105 ± 0.038.
For I29D, the abundance fitness was -0.432 ± 0.052.
M14E gave an abundance fitness of -0.216 ± 0.038.
In the case of M14K, the abundance fitness is reported as -0.345 ± 0.055.
In the case of M14D, the abundance fitness is reported as -0.126 ± 0.059.
For M14L, the abundance fitness was -0.061 ± 0.032.
T2E showed an abundance fitness of 0 ± 0.04.
T2M showed an abundance fitness of -0.033 ± 0.046.
Variant T2A has an abundance fitness of -0.049 ± 0.032.
Work on L66K yielded an abundance fitness of -0.066 ± 0.046.
L66V gave an abundance fitness of -0.115 ± 0.028.
L66C showed an abundance fitness of -0.114 ± 0.051.
For L66I, the abundance fitness was -0.056 ± 0.074.
In the case of L66M, the abundance fitness is reported as -0.038 ± 0.04.
L66G gave an abundance fitness of -0.134 ± 0.027.
Variant R21A has an abundance fitness of 0.005 ± 0.031.
R21N gave an abundance fitness of 0.004 ± 0.063.
For R21D, the abundance fitness was -0.071 ± 0.051.
Work on R21E yielded an abundance fitness of 0.004 ± 0.035.
For R21S, the abundance fitness was 0.005 ± 0.034.
In the case of V71Y, the abundance fitness is reported as -0.047 ± 0.054.
With V71A the abundance fitness was -0.117 ± 0.03.
In the case of V71N, the abundance fitness is reported as -0.072 ± 0.054.
P47C showed an abundance fitness of -0.027 ± 0.041.
In the case of P47G, the abundance fitness is reported as -0.058 ± 0.025.
P47E showed an abundance fitness of -0.037 ± 0.034.
Work on P47N yielded an abundance fitness of -0.077 ± 0.054.
With R28H the abundance fitness was -0.108 ± 0.064.
Variant R28Y has an abundance fitness of -0.173 ± 0.061.
R28W showed an abundance fitness of -0.118 ± 0.034.
R28L gave an abundance fitness of -0.143 ± 0.033.
In the case of R28T, the abundance fitness is reported as -0.064 ± 0.039.
For R28C, the abundance fitness was -0.172 ± 0.047.
With K9H the abundance fitness was 0.012 ± 0.07.
Work on K9L yielded an abundance fitness of -0.021 ± 0.031.
For K9S, the abundance fitness was 0.025 ± 0.033.
K64T showed an abundance fitness of -0.285 ± 0.035.
Variant K64P has an abundance fitness of -1.14 ± 0.075.
For K64V, the abundance fitness was -0.35 ± 0.031.
K64L showed an abundance fitness of -0.491 ± 0.031.
C51D gave an abundance fitness of -0.633 ± 0.067.
With C51V the abundance fitness was -0.009 ± 0.033.
Work on C51A yielded an abundance fitness of -0.075 ± 0.036.
With S44R the abundance fitness was -0.046 ± 0.028.
In the case of S44Y, the abundance fitness is reported as -0.086 ± 0.067.
G55L gave an abundance fitness of -1.39 ± 0.085.
